We go through 30 molecules from US20050089937A1 (H LUNDBECK A S, published 2005).

Test [1] deals with rat spinal cord membrane receptor. In words: competition with [125I]D-Tyr-NPFF, rat spinal cord membranes.
The target in test [2] is T1, rat neuropeptide FF receptor (NPFF1) (rat, UniProt Q9EP86 1-432). As to the kind of experiment: competition with [125I]D-Tyr-NPFF, membranes of COS-7 cells with rat NPFF1. From the text:
(§1) Cos-7 cells transiently expressing the gene encoding the novel rat NPFF1 receptor were used for pharmacological evaluation.

For test [3], the target named is rat neuropeptide FF receptor (NPFF1) (rat) (UniProt Q9EP86). The description is as above.
Test [4] concerns the target T2, rat neuropeptide FF receptor (NPFF1) (rat), Q9EP86.
T2 chain: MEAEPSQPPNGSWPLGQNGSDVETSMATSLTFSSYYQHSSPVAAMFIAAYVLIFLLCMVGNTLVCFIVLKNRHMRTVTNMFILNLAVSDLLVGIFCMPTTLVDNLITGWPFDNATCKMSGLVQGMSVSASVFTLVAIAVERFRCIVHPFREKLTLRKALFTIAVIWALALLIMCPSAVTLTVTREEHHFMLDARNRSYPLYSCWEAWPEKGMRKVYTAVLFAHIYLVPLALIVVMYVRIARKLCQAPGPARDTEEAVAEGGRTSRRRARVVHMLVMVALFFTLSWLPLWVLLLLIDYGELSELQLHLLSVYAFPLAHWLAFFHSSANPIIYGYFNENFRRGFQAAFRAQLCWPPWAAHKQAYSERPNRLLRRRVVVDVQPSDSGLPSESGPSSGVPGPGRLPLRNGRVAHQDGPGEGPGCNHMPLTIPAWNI
The test is described as above.

Test [5] deals with T3, rat neuropeptide FF receptor (NPFF2) (rat, UniProt Q9EQD2 1-417).
T3 construct: Full-length cloned receptor; Also the native receptor in rat brain sections (autoradiography); also called rat NPFF2
As to the kind of experiment: competition with [125I]D-Tyr-NPFF, cloned receptor (head: HEK-293; text: Cos-7). The text has this:
(§2) Additional pharmacological evaluation was done using 293 human embryonic kidney cells (HEK-293 cells) transiently expressing the genes encoding the human NPFF1, NPFF2, and rat NPFF1 receptors, as well as Cos-7 cells expressing the rat NPFF2 receptors.

Test [6] has as its target T1, rat neuropeptide FF receptor (NPFF1). In words: competition with [125I]D-Tyr-NPFF, HEK-293 cells with the cloned receptor.
Text: as §2

Test [7] has as its target T4, human neuropeptide FF receptor (NPFF1) (human, UniProt Q9GZQ6 1-430).
T4 construct: also called human NPFF1; hNPFF1
The test is described as above.
Text: as §2

Test [8] has as its target T5, human NPFF2b (hNPFF2) receptor (human, UniProt Q9Y5X5 103-522).
T5 construct: also called NPFF-like; hNPFF-like
The description is as above.
Text: as §2

Test [9] addresses T1, rat neuropeptide FF receptor (NPFF1). As to the kind of experiment: cell-based or functional assay.
The target is the same in test [10]. As to the kind of experiment: radioligand saturation binding, transiently transfected HEK-293 cells.
Test [11] addresses T4, human neuropeptide FF receptor (NPFF1). Described as above.
Test [12] addresses T5, human NPFF2b (hNPFF2) receptor. Described as above.
Test [13] has as its target T3, rat neuropeptide FF receptor (NPFF2). In words: radioligand binding to cloned rat NPFF2, as told in the discussion.
For test [14] the target is unchanged. In words: radioligand saturation binding, Cos-7 cells expressing rat NPFF2.
Text: as §2

Test [15] deals with T1, rat neuropeptide FF receptor (NPFF1). In words: radioligand saturation binding, membranes of Cos-7 cells transiently expressing rat NPFF1.
Text: as §1

Test [16] addresses T3, rat neuropeptide FF receptor (NPFF2). As to the kind of experiment: competition binding, HEK-293 cells with the cloned receptor.
Test [17] has as its target T1, rat neuropeptide FF receptor (NPFF1). In words: cell-based or functional assay. The source holds these as a separate data set.
The target of test [18] is T4, human neuropeptide FF receptor (NPFF1). As to the kind of experiment: cell-based or functional assay.
For test [19], the target named is T5, human NPFF2b (hNPFF2) receptor. In words: cell-based or functional assay.

Non-standard residues stand in square brackets, D forms with d. No end group written: not given here. *: point of attachment. NMeF = CN[C@@H](Cc1ccccc1)C(=O)O; 125I = [125I]*

T5 sequence (Q9Y5X5 103-522): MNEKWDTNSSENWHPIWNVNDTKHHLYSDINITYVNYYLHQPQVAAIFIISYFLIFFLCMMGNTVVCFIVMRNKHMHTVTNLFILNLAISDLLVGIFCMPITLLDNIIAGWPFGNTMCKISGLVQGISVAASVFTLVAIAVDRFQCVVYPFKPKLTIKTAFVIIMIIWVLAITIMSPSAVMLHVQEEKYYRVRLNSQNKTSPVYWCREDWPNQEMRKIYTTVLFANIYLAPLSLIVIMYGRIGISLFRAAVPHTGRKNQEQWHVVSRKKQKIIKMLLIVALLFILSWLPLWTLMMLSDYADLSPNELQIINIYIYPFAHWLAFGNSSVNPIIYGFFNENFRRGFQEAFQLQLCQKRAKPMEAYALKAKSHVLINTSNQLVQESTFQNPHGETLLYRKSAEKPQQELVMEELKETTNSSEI
T3 sequence (Q9EQD2 whole entry): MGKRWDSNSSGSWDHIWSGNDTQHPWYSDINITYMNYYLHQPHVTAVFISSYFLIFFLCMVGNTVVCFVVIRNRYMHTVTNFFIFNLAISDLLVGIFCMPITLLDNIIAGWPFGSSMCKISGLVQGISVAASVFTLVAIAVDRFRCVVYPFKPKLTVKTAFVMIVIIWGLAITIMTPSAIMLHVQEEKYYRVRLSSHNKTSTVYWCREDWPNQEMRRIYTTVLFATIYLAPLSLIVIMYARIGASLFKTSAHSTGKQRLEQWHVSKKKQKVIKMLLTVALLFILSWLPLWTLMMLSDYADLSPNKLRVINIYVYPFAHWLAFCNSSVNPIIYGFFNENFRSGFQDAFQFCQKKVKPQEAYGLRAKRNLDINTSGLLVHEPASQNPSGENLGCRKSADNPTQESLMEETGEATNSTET
T4 sequence (Q9GZQ6 whole entry): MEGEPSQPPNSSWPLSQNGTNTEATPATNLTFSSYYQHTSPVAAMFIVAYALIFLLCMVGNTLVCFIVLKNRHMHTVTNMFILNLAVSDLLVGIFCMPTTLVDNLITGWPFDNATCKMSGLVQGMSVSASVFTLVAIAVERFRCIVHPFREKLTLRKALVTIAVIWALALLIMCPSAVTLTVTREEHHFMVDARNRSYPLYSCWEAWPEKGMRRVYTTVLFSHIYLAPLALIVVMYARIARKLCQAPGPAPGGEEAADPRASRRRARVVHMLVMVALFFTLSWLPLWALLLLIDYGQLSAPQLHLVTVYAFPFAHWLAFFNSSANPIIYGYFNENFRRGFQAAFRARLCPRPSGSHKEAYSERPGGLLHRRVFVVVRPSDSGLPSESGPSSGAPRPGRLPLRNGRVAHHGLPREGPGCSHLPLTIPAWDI

On to desamino-nor-Y8Ra (peptide), for which the negative logarithm of the Ki (pKi) (usually −log10 of the Ki, conventionally taken in molar units) is 7.51 in [1] and 7.27 in test [2].

For (3D)Y8Fa (peptide), the results for the pKi in [3] and in test [1] were 8.62 and 9.12, respectively.

Regarding (2DME)Y8Fa (peptide), the pKi is 9.2 in test [3] and 9.57 in test [1].

“Dynorphin A1-13 (from UniProt P01213 207-219) (peptide)” registered a pKi in test [1] of 5.7.

As to CGRP (peptide), the pKi in test [1] and in [2] was 5 in each case.

With Neuropeptide F, the pKi in [1] is 8.1; in [2] it was 6.11.

As to Neuropeptide FF (NPFF), the pKi in test [1] was 9.05.

(2D)Y8Fa (peptide): the pKi in test [3] was found to be 8.33; in test [1], 9.21.

B1: AF-1 (peptide)
peptide: H-KNQFIRF-NH2
notes: Printed as H2N-Lys-Asn-Gln-Phe-Ile-Arg-Phe-NH2; also called FMRF-like peptide
In the case of B1, the values for the pKi in [1] and in [2] were 7.56 and 6.63, respectively.

Regarding YPLG (modifications not checked) [Tyr-MIF-1], the pKi in test [1] and in [4] was 5 in each case.

GWTLNSAGYLLGPHAVGNHRSFSDKNGLTS (peptide, UniProt P22466 33-62, looked up, species assumed, Galanin) [galanin]: the pKi in test [1] and in test [2] was 5 each time.

On to PDVDHVFLRF-NH2 (also called SchistFLRF) [Schisto(FLRFNH2)], for which the pKi in test [1] worked out at 6.39; in test [2] it was 5.96.

For FMRF (D-Met in place of L-Met, C-terminal amide, also called the D-Met analog) [D-Met-FMRF amide], the pKi came out at 6.2 in test [5], 6.2 in test [6], 6.6 in [7] and 6.4 in [8].

Turning to APLEPVYPGDNATPEQMAQYAADLRRYINMLTRPRY (peptide, UniProt P01298 30-65, looked up) [hPP], the pKi in test [1] and in test [2] was 5 throughout.

As to DYMGWMDF (peptide, UniProt P06307 96-103, looked up, species assumed, ends and bridges not checked) [CCK8], the pKi in test [1] and in test [2] was 5 each time.

B2: (D-Tyr^1-(NMe)Phe^3)NPFF (peptide)
peptide: [dY]L[NMeF]QPQRF-NH2
modifications: N-terminus assumed
SMILES: CC(C)C[C@H](NC(=O)[C@H](N)Cc1ccc(O)cc1)C(=O)N(C)[C@@H](Cc1ccccc1)C(=O)N[C@@H](CCC(N)=O)C(=O)N1CCC[C@H]1C(=O)N[C@@H](CCC(N)=O)C(=O)N[C@@H](CCCNC(=N)N)C(=O)N[C@@H](Cc1ccccc1)C(N)=O
notes: also called D-Tyr-NPFF; (1DMe)Y8Fa
B2: the pKi in test [5] turned out to be 8.7; in test [1] it was 9.72; in test [2], 8.55; in test [6], 8.8; in [7], 8.1; in test [8], 8.5.

B3: Met5-Arg6-Phe7-Enk-NH2 (peptide)
peptide: YGGFMRF-NH2
notes: also called Met-Enk-NH2; Met^5, Arg^6, Phe^7-NH2 enkephalinamide
For the molecule B3, the pKi in test [1] turned out to be 8.4; in test [2] it was 7.35.

As for AGEGLSSPFWSLAAPQRF-NH2 (also called NPAF) [rat A-18-F-amide], the pKi came out at 8.2 in test [5]; 9 in [1]; 7.5 in test [2]; 7.5 in [6]; 7.2 in test [7]; 8.9 in test [8]. Moreover, the “EC50, extracellular acidification rate (microphysiometry), CHO cells with NPFF1 alone” value in test [9] was found to be 150 nM.

B4: [Y^9]A18Fa (peptide)
peptide: AGEGLSSPYWSLAAPQRF-NH2
notes: also called [Y^9]A18Famide; [tyr^9]A-18-F-amide
In the case of B4, the results for the pKi in test [1] and in test [2] were 8.5 and 7.56, respectively.

With [dY](125I)L[NMeF]QPQRF-NH2 [[^125I][D-Tyr^1-(NMe)Phe^3]NPFF], the Kd – broadly, the concentration at which binding is half-saturated – in test [10] was 0.65 nM; in test [11] it was 0.46 nM; in [12], 0.17 nM; in test [13], 0.22 nM; in test [14] it was 0.17 nM; in test [15], 0.335 nM.

B5: Neuropeptide FF (NPFF) (peptide)
peptide: FLFQPQRF-NH2
notes: bought from Bachem; also called F-8-Fa; F8Famide
Take B5: the pKi in [16] was determined as 8.2. For the same molecule, in [9], the “EC50, extracellular acidification rate (microphysiometry), CHO cells with NPFF1 alone” value stood at 19.3 nM; the “EC50, extracellular acidification rate (microphysiometry), CHO cells with NPFF1 and the Gz/Gq chimera” value worked out at 27.7 nM; the “EC50, total inositol phosphate release, Cos-7 cells with NPFF1” value came out at 23 nM. Also, the “EC50, functional activity in COS-7 cells” value in test [17] worked out at 9.3 nM.

For YGGFMRF-OH [Met5-Arg6-Phe7-Enk-OH], the pKi in test [1] and in [2] was 5 in each case.

MPRVRSLFQEQEEPEPGMEEAGEMEQKQLQ (peptide, UniProt Q13519 98-127, looked up, species assumed, Nocistatin) [nocistatin]: the pKi in test [1] and in [2] was 5 each time.

YLFQPQRF-NH2 (also called Y8Famide; Y-8-F-amide) [Y8Fa]: the pKi amounted to 9.19 in [1] and 8.38 in test [2].

Turning to FMRF-NH2 [FMRF amide], the pKi in test [5] came out at 8; in [1], 8.49; in [2] it was 8.48; in test [6], 8.7; in test [7], 9.1; in test [8] it was 8.4.

PMRF-NH2 [PMRFa]: the figures for the pKi in test [1] and in test [2] were 9.37 and 8.55, respectively.

B6: PQRF-amide (peptide)
peptide: PQRF-NH2
notes: C-terminal tetrapeptide of NPFF; also called PGRF-amide [sic]
B6: the pKi in test [5] was 7.6; in [2] it was 8.18; in test [6], 7.6; in test [7], 7.4; in [8], 7.6. The “% of NPPF Response, intracellular calcium mobilization” value in [18] is 93 % of NPPF Response; in test [19], 94 % of NPPF Response. In addition, the figures for the “pEC50, intracellular calcium mobilization” value in test [18] and in test [19] were 6.7 and 7, respectively.

Regarding FFRF (ends and bridges not checked), the pKi came out at 8.98 in test [1] and 8 in test [2].

For the molecule FTRF (ends and bridges not checked), the figures for the pKi in test [1] and in [2] were 8.16 and 7.87, respectively.

B7: AF-2 (peptide)
peptide: H-KHQYLRF-NH2
notes: Printed as H-Lys-His-Gln-Tyr-Leu-Arg-Phe-NH2
For B7, the pKi was 7.96 in test [1] and 7.02 in test [2].
